We go through 1 molecule from article PMC8534766.

Starred links: 1 amine or outer side, 2 acyl side, 3 side chain; linkers in the order of their positions; H or OH if unused. Benzoyl(5-NH,2-NO2) = O=C(c1cc(N[*:1])ccc1[N+](=O)[O-])[*:2]

This assay has as its target SP-1, serine protease from Clostridium ramosum DSM1402 (Clostridium ramosum DSM1402).

B1: ABZ-Ileu-Met-Ala-Arg-ANB-NH2 (peptide)
peptide: {ABZ}-IMAR-{Benzoyl(5-NH,2-NO2)-NH2}
For B1, the KM of steady-state cleavage of the substrate by SP-1 (20 nM SP-1, 0.05-2 mM substrate, 20 mM Tris, 300 mM NaCl, 1 mM CaCl2, pH 8, room temperature; Michaelis-Menten fit) was determined as 0.000191 M.
